Among the data in the supplement of paper PMC10567573 are protein stability index values, retold here.

± gives the standard deviation.

The data set can be described thus: protein stability index of a GFP-peptide fusion (GPS, HEK-293T) (PSI 1-6); higher = more stable. The following applies: c terminus: a fixed tail appended.
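Further: 24-mer peptide tiles fused after GFP, lentivirally expressed, FACS-sorted into six equal bins by GFP/DsRed ratio, decoded by Illumina sequencing, PSI is the read-weighted mean bin number.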

With RINLVAAIFSAPAFPAAVSSMKKF [PSD2], the protein stability index runs as follows: (treatment: DMSO) 2.37 ± 0.46; (treatment: MLN4924 1 uM, 8 h) 2.27 ± 0.59.

For the sequence DVEFLPVYHPSPEESRDPTLYANN [LPCAT4], the protein stability index reads like this: (treatment: DMSO) 4.88 ± 0.32; (treatment: MLN4924 1 uM, 8 h) 4.64 ± 0.054.

Take LVELSAENEKLHQRVEQLTRDLAG [CEBPD]: the protein stability index is, setting by setting: (treatment: DMSO) 3.64 ± 0.61; (treatment: MLN4924 1 uM, 8 h) 3.73 ± 0.28.

For FEAEPLPENTNRQLLLQFERLVVL [PI4K2A], the protein stability index by setting is: (treatment: DMSO) 2.12 ± 0.1; (treatment: MLN4924 1 uM, 8 h) 2.14 ± 0.26.

For the sequence GEEEAESSISSTSNEQLKVTQEPR [ZMYND11], the protein stability index is, setting by setting: (treatment: DMSO) 5.59 ± 0.11; (treatment: MLN4924 1 uM, 8 h) 5.46 ± 0.28.

As to THSSLSQELQARLQTVTREKEELL [CCDC89], the protein stability index is, setting by setting: (treatment: DMSO) 4.89 ± 0.35; (treatment: MLN4924 1 uM, 8 h) 4.68 ± 0.22.

Regarding NQYATCRLCGRQVSRGPGVNVGTT [ZBED2], the protein stability index was 2.39 ± 0.27 (treatment: DMSO) and 2.58 ± 0.46 (treatment: MLN4924 1 uM, 8 h).

For EKAFIAHFQDNLHSVNRDLNELER [MED27], the protein stability index came out at 3.85 ± 0.23 (treatment: DMSO) and 4.09 ± 0.2 (treatment: MLN4924 1 uM, 8 h).

On to DAQLLPHHSLQAHFRPRFHPLPTV [TMEM192], for which the protein stability index reads like this: (treatment: DMSO) 3.22 ± 0.18; (treatment: MLN4924 1 uM, 8 h) 3.22 ± 0.16.

LAHMIAECKKLFQVPEEMSRCRNS [DLC1]: the protein stability index is 2.67 ± 0.34 (treatment: DMSO) and 2.68 ± 0.34 (treatment: MLN4924 1 uM, 8 h).

With APRLLKREPDWGDGDAPGSLLPAQ [CEBPD], the protein stability index is 4.87 ± 0.43 (treatment: DMSO) and 5.03 ± 0.37 (treatment: MLN4924 1 uM, 8 h).

As for VKGLFKSENCPKVISCEFAHNSNW [LARP4], the protein stability index reads like this: (treatment: DMSO) 2.17 ± 0.24; (treatment: MLN4924 1 uM, 8 h) 2.4 ± 0.24.

Sequence GAERKAALCELLEKETQIIASIGR [IQUB] registered a protein stability index (treatment: DMSO) of 3.21 ± 0.61 and a protein stability index (treatment: MLN4924 1 uM, 8 h) of 3.2 ± 0.2.

On to LLTHRCLRDEHRCASKYGRDWERY [DHCR7], for which the protein stability index was 2.26 ± 0.27 (treatment: DMSO) and 2.38 ± 0.11 (treatment: MLN4924 1 uM, 8 h).

Turning to SRVTDPVGDIVSFMHSFEEKYGRA [FAF2], the protein stability index (treatment: DMSO) worked out at 3.34 ± 0.25 and the protein stability index (treatment: MLN4924 1 uM, 8 h) is 3.59 ± 0.36.

With EPAARISPLGALQHGFFRRTADEA [DYRK1B], the protein stability index is, setting by setting: (treatment: DMSO) 4.08 ± 0.13; (treatment: MLN4924 1 uM, 8 h) 3.89 ± 0.22.

On to ASHSLSPSEHVQGKSPVNMVTVAM [ZNF649], for which the protein stability index (treatment: DMSO) came to 3.3 ± 0.29 and the protein stability index (treatment: MLN4924 1 uM, 8 h) is 3.21 ± 0.35.

Take ASMAPAAALPPVPSPPAAPSVADN [SERTAD1]: the protein stability index (treatment: DMSO) worked out at 5.3 ± 0.13 and the protein stability index (treatment: MLN4924 1 uM, 8 h) was found to be 5.31 ± 0.42.

For DITQSIEDDPLLDAQLLPHHSLQA [TMEM192], the protein stability index is, setting by setting: (treatment: DMSO) 4.15 ± 0.22; (treatment: MLN4924 1 uM, 8 h) 4.1 ± 0.37.

As for QGVEGDHCVTSDPATSPLVLAIPR [TRIM35], the protein stability index reads like this: (treatment: DMSO) 4.43 ± 0.27; (treatment: MLN4924 1 uM, 8 h) 4.66 ± 0.22.

As to RMDFAAKLMKNIRFPLMTPQELIN [KLHL13], the protein stability index by setting is: (treatment: DMSO) 2.01 ± 0.31; (treatment: MLN4924 1 uM, 8 h) 1.94 ± 0.27.

For the sequence EKDERQRTTKPMAQRSAHCSRPSG [CSNK1G1], the protein stability index (treatment: DMSO) stood at 5.12 ± 0.11 and the protein stability index (treatment: MLN4924 1 uM, 8 h) was found to be 4.98 ± 0.29.

Regarding GGGNARATGMFLQYTVPGTEGVTQ [ZFYVE21], the protein stability index amounted to 3.51 ± 0.35 (treatment: DMSO) and 3.57 ± 0.18 (treatment: MLN4924 1 uM, 8 h).

For the sequence VLLHGPPGTGKTSLCKALAQKLTI [TRIP13], the protein stability index was 2.58 ± 0.6 (treatment: DMSO) and 2.31 ± 0.53 (treatment: MLN4924 1 uM, 8 h).

Regarding GHLSKDVDENDSHEGEDQFLSLEA [DLC1], the protein stability index by setting is: (treatment: DMSO) 5.63 ± 0.17; (treatment: MLN4924 1 uM, 8 h) 5.54 ± 0.077.

Take HQSLSLASSPKGTIENILDNDPRD [CDC25A]: the protein stability index is, setting by setting: (treatment: DMSO) 5.3 ± 0.2; (treatment: MLN4924 1 uM, 8 h) 5.22 ± 0.18.

With EGRGGRPGSTRPHRSACSSAAVRG [HAGHL], the protein stability index worked out at 4.52 ± 0.17 (treatment: DMSO) and 4.58 ± 0.19 (treatment: MLN4924 1 uM, 8 h).

For the sequence VPSLNAALMHTLQRHRDILQVIYW [GOSR1], the protein stability index amounted to 2.23 ± 0.55 (treatment: DMSO) and 2.4 ± 0.41 (treatment: MLN4924 1 uM, 8 h).

Turning to LEPLSLPESPGGTTTLEGSPSVPC [ZNF277], the protein stability index runs as follows: (treatment: DMSO) 5.22 ± 0.16; (treatment: MLN4924 1 uM, 8 h) 5.3 ± 0.14.

Consider SDVICDFPFQAMVQFHRHHGQEGS [GMPPB], for which the protein stability index is, setting by setting: (treatment: DMSO) 3.12 ± 0.32; (treatment: MLN4924 1 uM, 8 h) 3.19 ± 0.28.

Consider RSLANGPNAGEQPGQVAGADFESE [EID1], for which the protein stability index came out at 5.22 ± 0.24 (treatment: DMSO) and 5.74 ± 0.18 (treatment: MLN4924 1 uM, 8 h).

Take YEWARDHRAHHKFSETHADPHNSR [SCD]: the protein stability index reads like this: (treatment: DMSO) 3.96 ± 0.28; (treatment: MLN4924 1 uM, 8 h) 4.12 ± 0.18.

Regarding MDLKTAVFNAARDGKLRLLTKLLA [FEM1C], the protein stability index came to 2.17 ± 0.2 (treatment: DMSO) and 2.3 ± 0.32 (treatment: MLN4924 1 uM, 8 h).

For the sequence GPRPVQSVVPEMEESGAQLLLEML [CDK4], the protein stability index reads like this: (treatment: DMSO) 3.91 ± 0.66; (treatment: MLN4924 1 uM, 8 h) 3.71 ± 0.15.

Regarding VFDAEGYVKPQSCIDIVIRHVAPI [MOSPD3], the protein stability index by setting is: (treatment: DMSO) 2.19 ± 0.16; (treatment: MLN4924 1 uM, 8 h) 2.19 ± 0.51.

Consider LYGQRNSAPEQELLVQDATPVSNS [GFOD1], for which the protein stability index (treatment: DMSO) stood at 4.82 ± 0.098 and the protein stability index (treatment: MLN4924 1 uM, 8 h) was 4.76 ± 0.11.
